# In patent US20170224833A1, “SELF-ASSEMBLING MOLECULES THAT ACCUMULATE IN ACIDIC TUMOR MICROENVIRONMENTS” (OHIO STATE INNOVATION FOUNDATION, priority 2014, published 2017):
# Residues, ends and D or L forms follow the SMILES beside them. *: point of attachment. Palmitoyl = CCCCCCCCCCCCCCCC(=O)*
# Tests used:
# Type in all cases: physicochemical
# [1] = pH titration of peptide amphiphiles (pKa); details: 10 μM
# Method: The titration measurements were conducted on 10 μM peptide amphiphile solutions prepared in 150 mM NaCl and 2.2 mM CaCl2 using milli-Q water. The solution was heated at 80° C. for 30 minutes followed by slow cooling at room temperature. The pH of the solution was then adjusted to 4 using HCl. Finally, an Accumet XL15 pH meter (Fisher Scientific) coupled with an Orion Ross Ultra semi-micro electrode (8103BNUWP, Thermo Scientific) was used to track changes in pH of the solution as NaOH solution was added in small increments. pKa values were obtained from the second inflection points of the first derivative plots of the titration data. The first transition corresponds to neutralization of excess HCl. The calculated pKas reflect the average pKa for all four glutamic acids.
# [2] = Critical aggregation concentration (CAC), pyrene 1:3 method
# Method: For the CAC measurements, a series of solutions of the PA with concentrations ranging from 10 nM to 300 μM were prepared using serial dilutions in 150 mM NaCl and 2.2 mM CaCl2. The final concentration of pyrene in each solution was fixed to be 1.23 μM. This was followed by pH adjustment of the solutions using careful additions of HCl or NaOH. 70 μL of each solution was transferred to a 96-well plate and the fluorescence emission of pyrene was monitored using a hybrid reader fluorimeter (BioTek Synergy H4) at room temperature. The excitation wavelength was set at 335 nm. The ratio of the intensities of emissions at 376 nm and 392 nm were then plotted as a function of the PA concentration (log scale). The CAC was determined from an abrupt change in the slope of the plot using the least-squares fitting technique.
# For CAC measurements, a series of solutions of either pure PA or PA mixture with concentrations ranging from 100-300 nM to 500-700 μM were prepared using serial dilutions in 150 mM NaCl and 2.2 mM CaCl2 (and 1.8 mM 20 kDa PEG in select samples). The final concentration of pyrene in each solution was fixed to be 4.5 μM. This was followed by pH adjustment of the solutions using careful additions of HCl or NaOH. 100 µL of each solution was transferred to a 96-well plate and the fluorescence emission of pyrene was monitored using a hybrid reader fluorimeter (BioTek Synergy H4) at room temperature. The excitation wavelength was set at 335 nm. The ratio of the intensities of emissions at 376 nm and 392 nm were then plotted as a function of the PA concentration (log scale). The CAC was determined from an abrupt change in the slope of the plot using the least-squares fitting technique.
# The pyrene 1:3 method was used to determine CAC for the PAs (Aguiar, J., et al. J. Colloid Interface Sci. 2003 258:116-122). For both PA71 and PA68, CAC measurements were performed at various pH values (5-10). Samples of high PA concentration (300-750 μM) were prepared in deionized water containing 150 mM NaCl and 2.2 mM CaCl2. These samples were raised to 9 or greater pH using NaOH and heated at 80° C. for 30 minutes. Samples were then allowed to cool to room temperature and pH was altered to the desired value using dilute NaOH and HCl. Solutions containing only aqueous 150 mM NaCl and 2.2 mM CaCl2 and solutions containing these salts, a 1:1 solution of water and methanol, and 62 μM pyrene were also prepared. Each of these solutions was divided into various portions and adjusted to appropriate pH values. The PA solutions were serially diluted with the corresponding salt solutions with a total of 125 μL at each concentration. 5 μL of the pyrene containing solution as added to each dilution for a final pyrene concentration of 2.4 μM. Each diluted sample was probed for fluorescence with an excitation wavelength of 335 nm. Fluorescence was recorded with particular attention paid to the 376 nm and 392 nm emission peaks. The ratio of these two peaks was plotted versus PA concentration on a log scale. The CAC was determined from an abrupt change in the slope of the plot using the least-squares fitting technique.
# Critical aggregation concentration (CAC) measurements were carried out to determine the concentration at which micelles or nanofibers begin to form by using the pyrene 1:3 method, (citation) All samples were basified to a pH of 10, stirred at 90° C. for 30 minutes in an oil bath and cooled to room temperature. HCl and NaOH were then added to set the PA solution specific pH value. PAs with concentrations ranging from 100 μM to 500 μM were serial diluted with 150 mM NaCl and 2.2 mM CaCl2. A pyrene solution was then added to each of the diluted samples, for a final pyrene concentration of 4.5 μM. 100 μL of each serial diluted sample were transferred into a 96-well plate and the fluorescence emission of the pyrene was monitored by a hybrid reader fluorimeter (BioTek Synergy H4) at room temperature with an excitation wavelength of 335 nm. […]
# [3] = CD spectroscopy in artificial mouse serum (150 mM NaCl, 2.2 mM CaCl2, 1.8 mM 20 kDa PEG); details: both pure and artificial mouse serum
# Method: Measurements were done on a Jasco-815 Circular Dichroism spectrometer using 0.5-1 cm path length quartz cuvettes. 500-10 μM of either pure PA or PA mixtures were prepared in 150 mM NaCl and 2.2 mM CaCl2 (and 1.8 mM 20 kDa PEG in select samples) by dilution from a concentrated PA stock (0.5-1 mM, pH 9). Double de-ionized Milli-Q water was used for preparing all solutions. The solutions were then heated at 80° C. for 30 minutes in a water bath and gradually cooled to room temperature. An Accumet XL15 pH meter (Fisher Scientific) coupled with an Orion Ross Ultra semi-micro electrode (8103BNUWP, Thermo Scientific) was used to adjust the pH of the solution to the desired value followed by collection of the CD spectra. Each trace shown was averaged over 3 accumulations and was baseline subtracted using aqueous solutions containing salts only. All spectra are cut-off below 200 nm due to absorption by NaCl and CaCl2. The same procedure was followed for the salt control samples with 3.0 and 4.0 mM CaCl2.
# Finally, a medium that accurately replicated the ionic strength and the crowded environment of pure serum and enabled characterization of the PA self assembly behavior using CD and CAC measurements without interference from protein signals was created. This artificial serum solution contains 1.8 mM of 20 kDa PEG, 150 mM NaCl and 2.2 mM CaCl2. […]
# [4] = pH 5, 150 mM NaCl, 2.2 mM CaCl2
compound,measurement,setting,value
CCCCCCCCCCCCCCCC(=O)N[C@H](C(=O)N[C@@H](C)C(=O)N[C@@H](C)C(=O)N[C@@H](C)C(=O)N[C@@H](CCC(=O)O)C(=O)N[C@@H](CCC(=O)O)C(=O)N[C@@H](CCC(=O)O)C(=O)N[C@@H](CCC(=O)O)C(N)=O)[C@@H](C)CC [PA1] (Palmitoyl-IAAAEEEE-NH2),glutamic acids in the deprotonated form at the transition,[1],98.8%
same,critical aggregation concentration (CAC),[2]; pH 6.6,6.0 µM
CCCCCCCCCCCCCCCC(=O)N[C@@H](C)C(=O)N[C@H](C(=O)N[C@@H](C)C(=O)N[C@@H](C)C(=O)N[C@@H](CCC(=O)O)C(=O)N[C@@H](CCC(=O)O)C(=O)N[C@@H](CCC(=O)O)C(=O)N[C@@H](CCC(=O)O)C(N)=O)[C@@H](C)CC [PA68] (Palmitoyl-AIAAEEEE-NH2),"CAC, times lower than PA1",[2]; comparable pH values,3-5
same,CAC,[2]; [4],1.1 µM
same,CAC,"[2]; pH 10, 150 mM NaCl, 2.2 mM CaCl2",7.5 µM
Palmitoyl-AAAIEEEE-NH2 (SMILES CCCCCCCCCCCCCCCC(=O)N[C@@H](C)C(=O)N[C@@H](C)C(=O)N[C@@H](C)C(=O)N[C@H](C(=O)N[C@@H](CCC(=O)O)C(=O)N[C@@H](CCC(=O)O)C(=O)N[C@@H](CCC(=O)O)C(=O)N[C@@H](CCC(=O)O)C(N)=O)[C@@H](C)CC) [PA70],aggregation state by pyrene 1:3 method,[2]; all pH and concentration values,in the aggregated state across all pH and concentration values
Palmitoyl-AIAAEEEEK(DO3A:Gd)-NH2 (Palmitoyl-AIAAEEEEK(DO3A)-NH2; also: DO3A chelates Gd) [PA71],CAC (below the detectable limit),[2]; all pH values tested except pH 10,200 to 300 nM
same,CAC,[2]; [4],1.3 µM
same,"CAC, fold lower than PA5",[2]; pH ~7,> 6
Palmitoyl-IAAAEEEEK(DO3A:Gd)-NH2 (Palmitoyl-IAAAEEEEK(DO3A)-NH2; also: DO3A chelates Gd) [PA5],morphology across pH,[3],remains nanofibers across all measured pH values
palmitoyl-YYAAEEEEEK(DO3A:Gd)-NH2 (Palmitoyl-YYAAEEEEEK(DO3A)-NH2; also: DO3A chelates Gd) [PA74],CAC higher than PA75,[2]; pH 6,~500%
same,CAC,[2]; pH 7.06,9.3 µM
same,CAC higher than PA75,[2]; pH 8,5%
same,CAC,[2]; pH 9.02,21.6 µM
